From PMC5934667 (Nucleic Acids Research, 2018)
Residue numbers refer to the chain shown, from its start. In names and notes the source's numbering stands.

Columns and labels:
[1] = molecular target: the molecule itself; experiment: negative-stain EM, helical reconstruction
RAD51 KR [2] = molecular target: T1, RAD51 KR (human, UniProt Q06609 1-339, K133R); experiment: EMSA
RAD51 KA [3] = molecular target: T2, RAD51 KA (human, UniProt Q06609 1-339, K133A); experiment: EMSA
RAD51 WT [4] = molecular target: T3, RAD51 WT (human, UniProt Q06609 1-339); experiment: EMSA
RAD51 KR [5] = molecular target: T1, RAD51 KR; experiment: stopped-flow Cy3 fluorescence
RAD51 KA [6] = molecular target: T2, RAD51 KA; experiment: stopped-flow Cy3 fluorescence
RecA = RecA (bacterial, UniProt P0A7G6 1-353); experiment: stopped-flow Cy3 fluorescence
RAD51 WT [7] = molecular target: T3, RAD51 WT; experiment: nuclease protection
RAD51 KR [8] = molecular target: T1, RAD51 KR; experiment: nuclease protection
RAD51 KA [9] = molecular target: T2, RAD51 KA; experiment: nuclease protection

RecA, sequence (P0A7G6 whole entry): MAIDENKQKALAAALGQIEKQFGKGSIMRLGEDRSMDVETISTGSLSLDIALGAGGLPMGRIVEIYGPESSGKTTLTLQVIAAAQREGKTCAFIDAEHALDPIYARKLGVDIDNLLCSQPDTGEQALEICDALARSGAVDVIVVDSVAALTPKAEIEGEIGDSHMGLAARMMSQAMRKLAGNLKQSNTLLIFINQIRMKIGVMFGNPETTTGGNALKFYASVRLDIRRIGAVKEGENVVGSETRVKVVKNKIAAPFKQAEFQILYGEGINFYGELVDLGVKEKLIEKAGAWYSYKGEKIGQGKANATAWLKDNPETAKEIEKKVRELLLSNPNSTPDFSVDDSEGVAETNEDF

B1: Human RAD51 K133R (natural protein)
chain: MAMQMQLEANADTSVEEESFGPQPISRLEQCGINANDVKKLEEAGFHTVEAVAYAPKKELINIKGISEAKADKILAEAAKLVPMGFTTATEFHQRRSEIIQITTGSKELDKLLQGGIETGSITEMFGEFRTGRTQICHTLAVTCQLPIDRGGGEGKAMYIDTEGTFRPERLLAVAERYGLSGSDVLDNVAYARAFNTDHQTQLLYQASAMMVESRYALLIVDSATALYRTDYSGRGELSARQMHLARFLRMLLRLADEFGVAVVITNQVVAQVDGAAMFAADPKKPIGGNIIAHASTTRLYLRKGRGETRICKIYDSPCLPEAEAMFAINADGVGDAKD
- binding result [1]: binds

B2: Human RAD51 K133A (natural protein)
chain: B1 chain with R133A
- binding result [1]: binds

B3: 83-mer (ssDNA)
DNA: AAATGAACATAAAGTAAATAAGTATAAGGATAATACAAAATAAGTAAATGAATAAACATAGAAAATAAAGTAAAGGATATAAA
- binding result (RAD51 KR [2]): binds
- binding result (RAD51 KA [3]): binds
- binding result (RAD51 WT [4]): binds

B4: 5'-Cy3-dT79 (ssDNA)
DNA: TTTTTTTTTTTTTTTTTTTTTTTTTTTTTTTTTTTTTTTTTTTTTTTTTTTTTTTTTTTTTTTTTTTTTTTTTTTTTTT
- binding result (RAD51 KR [5]): binds
- binding result (RAD51 KA [6]): binds
- Kd (RecA): < 1100 nM

B5: 61-mer (ssDNA)
DNA: GACGCTGCCGAATTCTACCAGTGCCTTGCTAGGACATCTTTGCCCACCTGCAGGTTCACCC
- binding result (RAD51 WT [7]): binds
- binding result (RAD51 KR [8]): binds
- binding result (RAD51 KA [9]): binds
